According to patent US20230348630A1 (BEIJING MABWORKS BIOTECH, published 2023):
Changes are numbered by the printed parent chain. Names may count otherwise. Where two headings read alike, the source gives them in different places.

B1: anti-CD3D&E antibody D1E9, full-length human IgG1 (L234A/L235A/N297A)/kappa (antibody, V domains shown)
VH: EVQLVESGGGLVQPGRSLRLSCAASGFTFDDFAMHWVRQAPGKGLEWVSGITWNSGSVGYADSVKGRFTISRDNAKKSLYLQMNSLRAEDTALYYCAKDRSGYGHYYYGMDVWGQGTTVTVAS
VL: EIVMTQSPATLSVSPGERATLSCRASTSVSHNVAWYQQKPGQAPRLLIYGASTKVTGIPARFSGSGSGTEFTLTISSLQSEDFAVYYCQHYINWPLTFGGGTKVEIKR
B2: anti-CD3D&E antibody 7-1A12, full-length human IgG1 (L234A/L235A/N297A)/kappa (antibody, V domains shown)
VH: B1 VH with D30S, F32Y, A33T, T52S, S55T, S57T, V58I, R100N, Y108F
VL: B1 VL with T27Q, H31R, K54R, V55Q, H90S, T97Q
B3: anti-CD3D&E antibody D12A4, full-length human IgG1 (L234A/L235A/N297A)/kappa (antibody, V domains shown)
VH: B1 VH with D30G, F32Y, T52S, S55H, S57H, V58I, R100N
VL: B1 VL with T27R, H31R, V33L, V55P, I92T, T97R
B4: anti-CD3D&E antibody D8E5, full-length human IgG1 (L234A/L235A/N297A)/kappa (antibody, V domains shown)
VH: B1 VH with D31S, F32Y, A33S, T52S, V58L
VL: B1 VL with T27R, H31L, V55Y, H90Q
B5: anti-CD3/BCMA bispecific antibody MBS305-H1-KIH (bispecific antibody, human IgG1, kappa, L234A L235A, N297A)
heavy 1: QVQLVQSGAEVKKPGASVKVSCKASGYTFTNHIIHWVRQAPGQGLEWMGYINPYPGYHGYNDKFSGRATMTSDTSTSTVYMELSSLRSEDTAVYYCARDGYYRDQDVLDYWGQGTLVTVSSASTKGPSVFPLAPSSKSTSGGTAALGCLVKDYFPEPVTVSWNSGALTSGVHTFPAVLQSSGLYSLSSVVTVPSSSLGTQTYICNVNHKPSNTKVDKKVEPKSCDKTHTCPPCPAPEAAGGPSVFLFPPKPKDTLMISRTPEVTCVVVDVSHEDPEVKFNWYVDGVEVHNAKTKPREEQYASTYRVVSVLTVLHQDWLNGKEYKCKVSNKALPAPIEKTISKAKGQPREPQVYTLPPSREEMTKNQVSLSCAVKGFYPSDIAVEWESNGQPENNYKTTPPVLDSDGSFFLVSKLTVDKSRWQQGNVFSCSVMHEALHNHYTQKSLSLSPGK
light 1: not shown
heavy 2: QVQLVQSGAEVKKPGASVKVSCKASGYTFTNHIIHWVRQAPGQGLEWMGYINPYPGYHGYNDKFSGRATMTSDTSTSTVYMELSSLRSEDTAVYYCARDGYYRDQDVLDYWGQGTLVTVSSGGGGSGGGGSGGGGSGGGGSDIQMTQSPSSLSASVGDRVTITCKASQDISQYLNWYQQKPGKAPKLLIYYTSGLHPGVPSRFSGSGSGTDFTFTISSLEPEDEATYYCQQGYALPWTFGQGTKLTAKRGGGGSGGGGSGGGGSEVQLVESGGGLVQPGRSLRLSCAASGFTFSDYTMHWVRQAPGKGLEWVSGISWNTGTIGYADSVKGRFTISRDNAKKSLYLQMNSLRAEDTALYYCAKDNSGYGHYYFGMDVWGQGTTVTVASASTKGPSVFPLAPSSKSTSGGTAALGCLVKDYFPEPVTVSWNSGALTSGVHTFPAVLQSSGLYSLSSVVTVPSSSLGTQTYICNVNHKPSNTKVDKKVEPKSCDKTHTCPPCPAPEAAGGPSVFLFPPKPKDTLMISRTPEVTCVVVDVSHEDPEVKFNWYVDGVEVHNAKTKPREEQYASTYRVVSVLTVLHQDWLNGKEYKCKVSNKALPAPIEKTISKAKGQPREPQVYTLPPSREEMTKNQVSLWCLVKGFYPSDIAVEWESNGQPENNYKTTPPVLDSDGSFFLYSKLTVDKSRWQQGNVFSCSVMHEALHNHYTQKSLSLSPGK
light 2: not shown
B6: anti-CD3/BCMA bispecific antibody MBS305-H2-KIH (bispecific antibody, human IgG1, kappa, L234A L235A, N297A)
heavy 1: B5 heavy 1
light 1: not shown
heavy 2: B5 heavy 2 with S294D, Y296F, T297A, S316T, T319S, T321S, I322V, N364R, F372Y
light 2: not shown
B7: anti-CD3/BCMA bispecific antibody MBS305-M-KIH (bispecific antibody, human IgG1, kappa, L234A L235A, N297A)
heavy 1: B5 heavy 1
light 1: not shown
heavy 2: B5 heavy 2 with S294D, D295S, T297S, T319S, T321S, I322L, N364R, F372Y
light 2: not shown

Assays:
[1] = target: T1, CD3E protein (Cat #: 10977-H08S, Sino Biological) (UniProt P07766 23-126); assay: SPR (BIAcore 8K), CD3E coupled to the chip, antibody as analyte
T1 construct: also called CD3ε
Description: For the test regarding binding affinity to CD3E (Cat #: 10977-H08S, Sino Biological), the CD3E molecules were coupled to a CMS biosensor chip, where about 200 RU of the molecules bound to the chip. The anti-CD3 antibodies of the disclosure diluted with the HBS-EP buffer (Cat #: BR-1006-69, GE Life Sciences) at 120 μg/ml were respectively flowed through the chip. Chip regeneration was performed with pH1.5 Gly-HCl.

[2] = target: T2, CD3D&E protein (Cat #: CT038-H2508H, Sino Biological) (human, UniProt P04234 22-105; P07766 23-126); assay: SPR (BIAcore 8K), antibody captured by anti-human Fc, CD3D&E as analyte
T2 construct: Bought complex of the delta and epsilon chains; also called CD3D&E complex; human CD3D&E complex
Description: Briefly, the mouse anti-human Fc antibodies were coupled to a CM5 biosensor chip. The anti-CD3 antibodies of the disclosure in the HBS-EP buffer (Cat #: BR-1006-69, GE Life Sciences) at the concentration of 1 μg/ml was flowed through the chip, where about 100 RU of the antibodies were captured by the mouse anti-human Fc antibodies. Serially diluted CD3D&E molecules (Cat #: CT038-H2508H, Sino Biological) in the HBS-EP buffer (Cat #: BR-1006-69, GE Life Sciences) (2-fold dilution starting at 20 μg/ml) were respectively flowed through the chip. Chip regeneration was performed with 3 M MgCl₂.

[3] = target: T2, CD3D&E protein (Cat #: CT038-H2508H, …); assay: ELISA, coated CD3D&E
CD3 on Jurkat cells [4] = target: T3, CD3 on Jurkat cells (UniProt P04234 22-171; P07766 23-207); assay: flow cytometry on Jurkat cells
T3 construct: whole, on cells
Description: (§1) Jurkat cells were collected, centrifuged at 300 g for 5 min, and suspended in PBS. After another centrifugation, the cells were suspended in 2% FBS-PBS at the cell density of 3×10⁶/ml, and […] were plated onto a U-bottom plate. The plate was added with 50 μl serially diluted anti-CD3 antibodies of the disclosure in 2% FBS-PBS (4-fold dilution, starting at 20 μg/ml), and incubated at room temperature for 1 h. The plate was washed with 2% FBS-PBS for three times, added with 50 μl PE-labeled goat-anti-human IgG (H+L) (1: 500), and incubated at room temperature for 45 min. The plate was washed with 2% FBS-PBS again for three times, and added with 150 μl 2% FBS-PBS to suspend the cells. The plate was measured for cell fluorescence using a cytometry, and the data was processed with FlowJo and analyzed with GraphPad.

[5] = target: T4, BCMA-his protein (Cat #: BCA-H522y, ACRO) (human, UniProt Q02223 1-54); assay: ELISA, coated BCMA protein
T4 construct: Bought recombinant protein; the construct is most likely only a soluble part of it; also called BCMA protein; human BCMA
T4 sequence: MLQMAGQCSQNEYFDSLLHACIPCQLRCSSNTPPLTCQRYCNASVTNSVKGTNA
Description: Briefly, an ELISA plate was coated with 100 μl 1 μg/ml BCMA protein (Cat #: BCA-H522y, ACRO) in PBS overnight at 4° C. Then, the plate was blocked with 250 μl PBST with 4% skimmed milk at room temperature for 1 h. […] The negative control well was added with PBST instead of the antibody. The plate was washed with PBST for three times, added with 100 μl HRP conjugated goat anti-human IgG (1:7000, Cat #: 31413, thermofisher), and incubated at room temperature for 1 h. The plate was washed again with PBST for four times, added with 100 μl freshly prepared TMB (Cat #: 555214, BD, USA), and left still for color development, which was terminated with 50 μl 10% H₂SO₄. The absorbance was read at 450 nm, and the data was processed and analyzed using GraphPad.
(§2) The purified bispecific antibodies were tested for their binding capability to recombinant human CD3 and human BCMA proteins by ELISA, following the protocols in Example 4 and Example 9.

[6] = target: monkey BCMA on HEK293A/monkey BCMA cells (monkey, UniProt Q02223 1-184 (human entry)); assay: flow cytometry on HEK293A/monkey BCMA cells
Description: (§3) The anti-BCMA antibody's binding capability to cell surface BCMAs was tested by FACS. Briefly, HEK293A/human BCMA cells, HEK293A/monkey BCMA cells and HEK293A/mouse BCMA cells, as generated in Example 1, were collected, digested with trypsin, and subjected to centrifugation at 300 g for 5 min. The cells were suspended in PBS, and subjected to centrifugation again. The cells were re-suspended in PBS with 2% FBS at the cell density at 4×10⁶/ml, and 50 μl cells were seeded onto a U-bottom plate. […] The plate was washed with 2% FBS-PBS for three times, added with 50 μl PE-labeled goat-anti-human IgG (H+L) (1: 500), and incubated at room temperature for 45 min. The plate was washed with 2% FBS-PBS again for three times, and added with 150 μl 2% FBS-PBS to suspend the cells. The plate was measured for cell fluorescence using a cytometry, and the data was processed with FlowJo and analyzed with GraphPad.
(§4) Following the protocol of Example 6, the bispecific antibodies of the disclosure were tested for their binding capability to the HEK293A/human BCMA cells, HEK293A/monkey BCMA cells, and HEK293A/mouse BCMA cells as generated in Example 1.

[7] = target: T2, CD3D&E protein (Cat #: CT038-H2508H, …); assay: ELISA, coated CD3D&E; remark: listed apart in the source
Description: as §2

[8] = target: T5, mouse BCMA on HEK293A/mouse BCMA cells (mouse, UniProt O88472 1-185); assay: flow cytometry on HEK293A/mouse BCMA cells [continued) E]
T5 sequence: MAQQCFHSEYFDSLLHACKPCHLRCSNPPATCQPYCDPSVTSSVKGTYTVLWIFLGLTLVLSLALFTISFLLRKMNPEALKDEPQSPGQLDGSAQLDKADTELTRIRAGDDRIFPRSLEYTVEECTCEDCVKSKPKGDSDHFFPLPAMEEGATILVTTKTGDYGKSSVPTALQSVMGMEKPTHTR
Description: as §3, §4

[9] = target: T6, human BCMA on HEK293A/human BCMA cells (human, UniProt Q02223 1-184); assay: flow cytometry on HEK293A/human BCMA cells
T6 sequence: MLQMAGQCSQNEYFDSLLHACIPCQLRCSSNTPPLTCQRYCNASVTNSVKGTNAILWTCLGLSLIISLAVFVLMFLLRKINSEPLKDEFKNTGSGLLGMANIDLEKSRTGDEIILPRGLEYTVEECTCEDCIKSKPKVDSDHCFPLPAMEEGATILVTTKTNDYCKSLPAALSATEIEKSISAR
Description: as §3, §4

CD3 on Jurkat cells [10] = target: T3, CD3 on Jurkat cells; assay: flow cytometry on Jurkat cells; remark: listed apart in the source
Description: as §1
Following the protocol of Example 11, the bispecific antibodies of the disclosure were tested for their binding capability to Jurkat cells.

[11] = target: T4, BCMA-his protein (Cat #: BCA-H522y, …); assay: SPR (BIAcore 8K), protocol of Example 5
Description: (§5) Following the protocols in Example 5 and Example 10, the bispecific antibodies of the disclosure were tested for their binding affinity to CD3D&E and human BCMA.

[12] = target: T2, CD3D&E protein (Cat #: CT038-H2508H, …); assay: SPR (BIAcore 8K), protocol of Example 10
Description: as §5

T3 sequence (P04234 22-171, chain 1 of 2): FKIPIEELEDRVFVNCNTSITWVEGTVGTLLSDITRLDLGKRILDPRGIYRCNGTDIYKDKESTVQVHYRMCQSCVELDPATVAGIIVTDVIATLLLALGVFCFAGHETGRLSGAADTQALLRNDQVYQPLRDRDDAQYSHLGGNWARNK
T3 sequence (P07766 23-207, chain 2 of 2): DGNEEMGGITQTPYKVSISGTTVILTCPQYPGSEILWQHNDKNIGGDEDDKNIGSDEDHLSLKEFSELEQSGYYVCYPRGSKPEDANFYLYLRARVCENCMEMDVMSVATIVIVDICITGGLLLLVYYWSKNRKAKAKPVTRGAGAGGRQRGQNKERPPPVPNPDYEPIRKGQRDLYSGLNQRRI
T2 sequence (P04234 22-105, form in doubt, chain 1 of 2): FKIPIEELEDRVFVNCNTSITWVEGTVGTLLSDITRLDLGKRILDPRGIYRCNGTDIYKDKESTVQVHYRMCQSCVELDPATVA
T2 sequence (P07766 23-126, form in doubt, chain 2 of 2): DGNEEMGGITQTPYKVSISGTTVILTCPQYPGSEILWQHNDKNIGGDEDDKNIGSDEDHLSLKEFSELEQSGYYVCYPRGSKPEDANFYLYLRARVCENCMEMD
Chain of monkey BCMA on HEK293A/monkey BCMA cells (Q02223 other isoform, or with tags, fused parts or gaps): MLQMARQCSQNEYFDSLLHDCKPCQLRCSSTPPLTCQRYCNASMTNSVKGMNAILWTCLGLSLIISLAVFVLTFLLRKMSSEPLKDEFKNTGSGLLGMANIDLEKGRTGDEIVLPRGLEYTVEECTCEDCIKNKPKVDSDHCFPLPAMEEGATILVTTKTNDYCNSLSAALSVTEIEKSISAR
T1 sequence (P07766 23-126 limits assumed, stated change not applied): as the sequence (P07766 23-126, form in doubt, chain 2 of 2) above

Binder | binding result [1] | Kd [2] [nM] | EC50 [3] [µg/mL] | EC50 (CD3 on Jurkat cells [4]) [µg/mL] | EC50 [5] [µg/mL] | EC50 [6] [µg/mL] | EC50 [7] [µg/mL] | binding result [8] | EC50 [9] [µg/mL] | EC50 (CD3 on Jurkat cells [10]) [µg/mL] | EC50 (read off the curve) (CD3 on Jurkat cells [10]) [µg/mL] | Kd [11] [nM] | Kd [12] [nM]
B1 | no binding (tested: 120 µg/ml) | 120 | 0.0879 | 0.0837 | – | – | – | – | – | – | – | – | –
B2 | – | 6.54 | 0.00402 | 0.119 | – | – | – | – | – | – | – | – | –
B3 | no binding (tested: 120 µg/ml) | 357 | 0.0226 | 0.11 | – | – | – | – | – | – | – | – | –
B4 | – | 30 | 0.00816 | 0.0411 | – | – | – | – | – | – | – | – | –
B5 | – | – | – | – | 0.0117 | 0.337 | 0.0468 | no binding (tested: about 30000 ng/ml (LOG10 about 4.5)) | 0.221 | 0.00173 | ~2 | 0.168 | 8.09
B6 | – | – | – | – | 0.0124 | 0.373 | 0.141 | no binding (tested: about 30000 ng/ml (LOG10 about 4.5)) | 0.285 | 0.00328 | – | 0.206 | 256
B7 | – | – | – | – | 0.0137 | 0.23 | 0.089 | no binding (tested: about 30000 ng/ml (LOG10 about 4.5)) | 0.199 | 0.00106 | ~1 | 0.105 | 37.9
